This data set has as its target DED1 (R2R3-MYB), GST fusion (Zea mays, UniProt A0A804M0V9 1-450). The data set can be described thus: EMSA; 5 mM Mg2+; EMSA: 50 ng DED1-GST, 6 ng probe in 20 uL 10 mM Tris pH 7.5, 50 mM KCl, 1 mM DTT, 2.5% glycerol, 5 mM MgCl2, 50 ug/uL (so in the source) poly(dI-dC), 0.05% NP-40, 25. The note with it: protein: recombinant; tags: GST (N-terminal, pGEX-4T-1); label: biotin 3' end on one strand; blunt. (Mobility shift assays separate free from complexed probe on a gel.)

Chain of DED1 (R2R3-MYB), GST fusion (A0A804M0V9 entry or part of it): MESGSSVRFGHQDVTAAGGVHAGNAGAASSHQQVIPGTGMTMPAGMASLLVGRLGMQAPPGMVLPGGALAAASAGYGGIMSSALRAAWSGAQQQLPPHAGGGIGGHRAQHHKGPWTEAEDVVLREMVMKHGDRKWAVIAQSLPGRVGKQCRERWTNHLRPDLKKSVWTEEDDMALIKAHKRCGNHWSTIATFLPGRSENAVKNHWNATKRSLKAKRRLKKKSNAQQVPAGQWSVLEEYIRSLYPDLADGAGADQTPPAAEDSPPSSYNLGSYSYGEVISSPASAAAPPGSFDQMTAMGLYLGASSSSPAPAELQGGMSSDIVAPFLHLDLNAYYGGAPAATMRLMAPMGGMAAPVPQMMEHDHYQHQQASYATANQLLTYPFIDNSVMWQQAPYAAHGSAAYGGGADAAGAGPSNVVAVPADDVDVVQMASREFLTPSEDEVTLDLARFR

B1: fl3 promoter probe (dsDNA)
DNA 1: TGTACAAATATTTCTACTGACAGTTTTTAAGAAACCACCTGTGGA
DNA 2: TCCACAGGTGGTTTCTTAAAAACTGTCAGTAGAAATATTTGTACA
For the molecule B1, the binding result is reported as “binds”.

B2: sus1 promoter probe (dsDNA)
DNA 1: CTGAACCGTTTTTCGGTTTCAGTTTTCTCTGCTGACTGAAGCTTC
DNA 2: GAAGCTTCAGTCAGCAGAGAAAACTGAAACCGAAAAACGGTTCAG
B2: the binding result is “binds”.

B3: vp1 promoter probe (dsDNA)
DNA 1: GTCCTTGAAACTGCAATCCAAATCTACGCAACCGTTTTGCATGCCACTGTTTGTA
DNA 2: TACAAACAGTGGCATGCAAAACGGTTGCGTAGATTTGGATTGCAGTTTCAAGGAC
Turning to B3, the binding result is “binds”.

B4: c1 promoter probe (dsDNA)
DNA 1: CATCATTCGATCAGTTTTCGTTCTGATGCAGTTTTCGATAAATGC
DNA 2: GCATTTATCGAAAACTGCATCAGAACGAAAACTGATCGAATGATG
For B4, the binding result is on record as “binds”.

The values are drawn from article PMC9470594, “Paternal imprinting of dosage-effect defective1 contributes to seed weight xenia in maize”.
